Data reported in PMC8497992.

Assays:
Assay in all cases: fluorescence polarization
Conditions in all cases: 50 mM Tris-HCl pH 8.0, 50 mM KCl, 1 mM EDTA; 50 nM labeled oligonucleotide; temperature not stated
[1] = biological target: SAMHD1 HD domain R366H R366H (UniProt Q9Y3Z3)
[2] = biological target: SAMHD1 HD domain R366C R366C (UniProt Q9Y3Z3)
SAMHD1 HD domain WT = SAMHD1 HD domain WT (UniProt Q9Y3Z3)
Sequence of SAMHD1 HD domain WT (Q9Y3Z3 114-626): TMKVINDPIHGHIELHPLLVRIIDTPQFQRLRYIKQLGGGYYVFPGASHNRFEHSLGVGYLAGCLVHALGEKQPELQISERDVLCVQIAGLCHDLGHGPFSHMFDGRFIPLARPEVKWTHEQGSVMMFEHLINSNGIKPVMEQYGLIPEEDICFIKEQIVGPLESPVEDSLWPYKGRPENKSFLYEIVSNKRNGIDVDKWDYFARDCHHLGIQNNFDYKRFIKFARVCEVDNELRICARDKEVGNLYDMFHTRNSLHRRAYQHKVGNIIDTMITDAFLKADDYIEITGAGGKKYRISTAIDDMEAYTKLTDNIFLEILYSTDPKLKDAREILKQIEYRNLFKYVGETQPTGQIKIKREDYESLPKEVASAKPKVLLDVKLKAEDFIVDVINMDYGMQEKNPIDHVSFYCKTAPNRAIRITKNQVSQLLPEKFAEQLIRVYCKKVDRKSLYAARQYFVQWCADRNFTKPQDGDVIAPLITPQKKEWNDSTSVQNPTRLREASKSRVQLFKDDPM

Sequence of SAMHD1 HD domain R366H R366H (Q9Y3Z3 114-626 R366H): as the sequence (Q9Y3Z3 114-626) above, with R253H counted along it
Sequence of SAMHD1 HD domain R366C R366C (Q9Y3Z3 114-626 R366C): as the sequence (Q9Y3Z3 114-626) above, with R253C counted along it

Which Kd [1] does the source give for 6FAM-ssDNA57 here?
The Kd was 2960 nM.

What about the Kd [2] of the same substance?
The Kd was 3820 nM.

What about the Kd (SAMHD1 HD domain WT) of the same substance?
The Kd was 387 nM.

For 6FAM-ssRNA40, which Kd [1] is on record?
Its Kd is 2480 nM.

And the Kd [2]?
The Kd was 2250 nM.

What about the Kd (SAMHD1 HD domain WT) of the same substance?
The Kd was 885 nM.
